T1: H14-ZZ-bdSUMO-tagged Pdr6 (S. cerevisiae, UniProt P32767 2-1081)
T1 construct: Pdr6/Kap122, S. cerevisiae; also called tagged NTR; source: E. coli Top10 F', purified (Ni(II) chelate, imidazole elution); not shown: His14, N-terminal, kept; ZZ, N-terminal, kept; bdSUMO, N-terminal, kept
T1 sequence: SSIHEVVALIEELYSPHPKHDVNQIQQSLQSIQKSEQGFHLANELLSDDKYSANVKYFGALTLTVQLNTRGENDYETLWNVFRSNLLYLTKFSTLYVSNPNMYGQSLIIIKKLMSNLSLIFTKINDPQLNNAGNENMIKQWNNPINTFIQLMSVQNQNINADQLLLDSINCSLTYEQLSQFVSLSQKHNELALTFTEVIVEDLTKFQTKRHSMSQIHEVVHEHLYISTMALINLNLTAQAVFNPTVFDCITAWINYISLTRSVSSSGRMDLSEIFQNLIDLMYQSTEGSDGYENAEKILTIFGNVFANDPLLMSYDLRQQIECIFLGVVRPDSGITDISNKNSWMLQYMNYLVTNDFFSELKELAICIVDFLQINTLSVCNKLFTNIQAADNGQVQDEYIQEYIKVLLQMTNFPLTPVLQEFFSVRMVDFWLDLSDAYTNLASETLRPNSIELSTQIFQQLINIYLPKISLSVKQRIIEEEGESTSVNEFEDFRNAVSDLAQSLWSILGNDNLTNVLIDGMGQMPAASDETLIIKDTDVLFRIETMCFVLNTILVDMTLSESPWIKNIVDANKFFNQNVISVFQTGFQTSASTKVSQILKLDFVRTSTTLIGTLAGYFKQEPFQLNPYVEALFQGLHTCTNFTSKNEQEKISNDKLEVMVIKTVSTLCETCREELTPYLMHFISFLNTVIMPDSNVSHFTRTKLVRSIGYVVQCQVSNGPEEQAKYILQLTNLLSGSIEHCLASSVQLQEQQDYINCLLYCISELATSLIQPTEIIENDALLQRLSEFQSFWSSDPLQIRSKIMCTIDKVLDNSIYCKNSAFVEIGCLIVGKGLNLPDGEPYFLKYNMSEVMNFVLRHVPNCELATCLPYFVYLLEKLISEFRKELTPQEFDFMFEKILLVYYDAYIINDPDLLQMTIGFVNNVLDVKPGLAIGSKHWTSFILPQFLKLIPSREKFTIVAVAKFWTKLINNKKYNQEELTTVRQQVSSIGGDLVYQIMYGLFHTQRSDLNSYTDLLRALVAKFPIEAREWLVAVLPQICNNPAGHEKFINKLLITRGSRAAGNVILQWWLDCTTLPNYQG

B1: Pdr6/Kap122 (S. cerevisiae), full length, tag removed (natural protein)
chain: MSSIHEVVALIEELYSPHPKHDVNQIQQSLQSIQKSEQGFHLANELLSDDKYSANVKYFGALTLTVQLNTRGENDYETLWNVFRSNLLYLTKFSTLYVSNPNMYGQSLIIIKKLMSNLSLIFTKINDPQLNNAGNENMIKQWNNPINTFIQLMSVQNQNINADQLLLDSINCSLTYEQLSQFVSLSQKHNELALTFTEVIVEDLTKFQTKRHSMSQIHEVVHEHLYISTMALINLNLTAQAVFNPTVFDCITAWINYISLTRSVSSSGRMDLSEIFQNLIDLMYQSTEGSDGYENAEKILTIFGNVFANDPLLMSYDLRQQIECIFLGVVRPDSGITDISNKNSWMLQYMNYLVTNDFFSELKELAICIVDFLQINTLSVCNKLFTNIQAADNGQVQDEYIQEYIKVLLQMTNFPLTPVLQEFFSVRMVDFWLDLSDAYTNLASETLRPNSIELSTQIFQQLINIYLPKISLSVKQRIIEEEGESTSVNEFEDFRNAVSDLAQSLWSILGNDNLTNVLIDGMGQMPAASDETLIIKDTDVLFRIETMCFVLNTILVDMTLSESPWIKNIVDANKFFNQNVISVFQTGFQTSASTKVSQILKLDFVRTSTTLIGTLAGYFKQEPFQLNPYVEALFQGLHTCTNFTSKNEQEKISNDKLEVMVIKTVSTLCETCREELTPYLMHFISFLNTVIMPDSNVSHFTRTKLVRSIGYVVQCQVSNGPEEQAKYILQLTNLLSGSIEHCLASSVQLQEQQDYINCLLYCISELATSLIQPTEIIENDALLQRLSEFQSFWSSDPLQIRSKIMCTIDKVLDNSIYCKNSAFVEIGCLIVGKGLNLPDGEPYFLKYNMSEVMNFVLRHVPNCELATCLPYFVYLLEKLISEFRKELTPQEFDFMFEKILLVYYDAYIINDPDLLQMTIGFVNNVLDVKPGLAIGSKHWTSFILPQFLKLIPSREKFTIVAVAKFWTKLINNKKYNQEELTTVRQQVSSIGGDLVYQIMYGLFHTQRSDLNSYTDLLRALVAKFPIEAREWLVAVLPQICNNPAGHEKFINKLLITRGSRAAGNVILQWWLDCTTLPNYQG
B2: S. cerevisiae Ubc9, full length (enzyme, UniProt P50623 1-157, looked up)
chain: MSSLCLQRLQEERKKWRKDHPFGFYAKPVKKADGSMDLQKWEAGIPGKEGTNWAGGVYPITVEYPNEYPSKPPKVKFPAGFYHPNVYPSGTICLSILNEDQDWRPAITLKQIVLGVQDLLDSPNPNSPAQEPAWRSFSRNKAEYDKKVLLQAKQYSK
notes: Ubc9, SUMO-conjugating E2 enzyme, S. cerevisiae, full length; residues 2-157 are in the model; Full length is said for the crystallised protein; also called yeast Ubc9; source: NEB Express cells, purified (Ni(II) chelate)

Experiments:
Conditions in all cases: both partners purified
[1] = target: human RanQ69L (residues 5-180), GTP-bound (human, UniProt P62826 5-180, Q69L); assay: crystal structure; Pdr6•RanGTP, hexagonal crystals, 18°C, 50 mM sodium acetate pH 5.5, 220 mM MgCl2, 19% pentaerythritol propoxylate, 10% 2-Methyl-2,4-pentanediol
[2] = target: T1, H14-ZZ-bdSUMO-tagged Pdr6; assay: pull-down; 1 µM H14-ZZ-bdSUMO-tagged NTR with 2 µM human or yeast Ubc9; retrieved via the tagged NTR by anti-Protein A beads, eluted by bdSENP1 protease, SDS-PAGE and Coomassie
[3] = target: B1; assay: crystal structure; Pdr6•Ubc9, 18°C, 50 mM sodium cacodylate pH 5.7, 20 mM MgCl2, 3-5% ethanol

binding result [1] | binding result [2] | binding result [3] | Binder
binds |  |  | B1
 | binds | binds | B2
